Results on one molecule are retold here after patent US20230146939A1, “TREATMENT FOR HUMAN CORONAVIRUS INFECTION” (THE ADMINISTRATORS OF THE TULANE EDUCATIONAL FUND, priority 2020, published 2023).

The assay has as its target α5β1 integrin, P08648. Briefly: competition ELISA, α5β1-coated plate, inhibition of trimeric spike binding. Background: ELISA stands for enzyme-linked immunosorbent assay.

Sequence of α5β1 integrin, P08648 (P08648 42-995, chain 1 of 2): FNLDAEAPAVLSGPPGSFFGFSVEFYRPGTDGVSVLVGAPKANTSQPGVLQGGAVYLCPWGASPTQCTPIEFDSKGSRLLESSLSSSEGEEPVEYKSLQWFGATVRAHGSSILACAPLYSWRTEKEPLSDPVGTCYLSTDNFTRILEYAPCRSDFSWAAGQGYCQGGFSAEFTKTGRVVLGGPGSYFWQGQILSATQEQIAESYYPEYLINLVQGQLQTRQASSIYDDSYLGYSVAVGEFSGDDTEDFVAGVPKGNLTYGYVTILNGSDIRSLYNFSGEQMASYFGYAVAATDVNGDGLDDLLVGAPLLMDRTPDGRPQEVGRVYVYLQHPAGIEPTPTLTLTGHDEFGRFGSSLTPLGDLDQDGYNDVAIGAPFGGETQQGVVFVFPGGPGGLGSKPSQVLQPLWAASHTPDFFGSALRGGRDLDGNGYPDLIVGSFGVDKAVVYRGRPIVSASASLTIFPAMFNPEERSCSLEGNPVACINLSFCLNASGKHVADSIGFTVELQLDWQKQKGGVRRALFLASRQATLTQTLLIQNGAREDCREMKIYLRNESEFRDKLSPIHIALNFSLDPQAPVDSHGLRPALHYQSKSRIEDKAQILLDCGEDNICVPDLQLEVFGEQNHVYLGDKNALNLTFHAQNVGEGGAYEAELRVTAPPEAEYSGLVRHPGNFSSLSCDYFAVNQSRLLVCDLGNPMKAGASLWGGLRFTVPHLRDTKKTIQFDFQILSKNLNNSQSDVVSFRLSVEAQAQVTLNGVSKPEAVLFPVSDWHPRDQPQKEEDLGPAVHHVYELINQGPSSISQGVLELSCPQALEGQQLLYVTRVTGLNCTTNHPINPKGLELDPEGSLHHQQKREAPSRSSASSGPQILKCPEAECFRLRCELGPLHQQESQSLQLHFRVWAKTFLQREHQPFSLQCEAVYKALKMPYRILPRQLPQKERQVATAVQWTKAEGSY
Sequence of α5β1 integrin, P08648 (P05556 21-728, chain 2 of 2, further chain): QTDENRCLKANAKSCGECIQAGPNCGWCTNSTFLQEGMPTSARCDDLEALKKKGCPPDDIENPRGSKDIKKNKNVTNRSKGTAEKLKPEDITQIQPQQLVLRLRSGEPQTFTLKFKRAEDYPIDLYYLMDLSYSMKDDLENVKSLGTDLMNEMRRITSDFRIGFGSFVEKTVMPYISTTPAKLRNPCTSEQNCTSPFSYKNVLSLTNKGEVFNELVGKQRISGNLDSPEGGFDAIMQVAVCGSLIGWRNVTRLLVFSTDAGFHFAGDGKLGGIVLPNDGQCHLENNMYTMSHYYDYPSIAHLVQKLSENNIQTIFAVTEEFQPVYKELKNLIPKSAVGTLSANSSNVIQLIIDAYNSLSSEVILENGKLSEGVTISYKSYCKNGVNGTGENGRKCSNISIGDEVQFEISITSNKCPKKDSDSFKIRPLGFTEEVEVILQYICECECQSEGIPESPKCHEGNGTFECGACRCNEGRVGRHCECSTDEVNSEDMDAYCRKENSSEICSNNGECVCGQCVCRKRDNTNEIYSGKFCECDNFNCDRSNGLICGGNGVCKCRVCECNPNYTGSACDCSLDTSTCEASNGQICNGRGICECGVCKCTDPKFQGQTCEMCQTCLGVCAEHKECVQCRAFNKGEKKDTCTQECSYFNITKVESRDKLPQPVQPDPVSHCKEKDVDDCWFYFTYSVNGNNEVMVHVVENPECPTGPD

For PHSCN (modifications not checked) [ATN-161], the most effective dose tested amounted to 100 nM.
